The test system of one assay is basophils. The assay can be described thus: Histamine release assay with basophils. The format is cell-based, human. To be noted: FIG. 4. As to the method: This was carried out as previously described (Lopez et. al., 1990, J. Cell. Physiol., 145, 69-77). Briefly, basophils were obtained from the peripheral blood of normal individuals after dextran sedimentation and centrifugation over Lymphoprep. The percentage of basophils in these preparations varied between 0.2% and 10%. In 300 μl 2×10^4 cells were incubated with 2 μg/ml of purified human IgE. IgE-sensitisedcells were mixed with a goat IgG antihuman IgE (Cappel 0101-0061) and rhIL-3, in a final volume of 500 μl. After incubation for 60 min at 37° C., the cells were centrifuged and 350 μl aliquots removed and stored at -20° C. before assaying for histamine content. Histamine was assayed using a radioertzymatic method essentially as described (Shaff and Beavan, 1979, Anal. Biochem., 94, 425-430). Briefly, samples of 30 μl were diluted with an equal volume of water and mixed with a 30 μl solution comprising 27.5 μl 0.1 M sodium phosphate, pH 7.9, 1.5 μl rat kidney histamine-N-methyltransferase, and 1.0 μl (0.5 μCi)^3 H-methyl-S-adensoyl-L-methionine (Dupont Net 155, low SA). Tritium-labelled methyl-histamine was extracted into chloroform/ether, dried, and counted by scintillation spectrophotometry. […] as nanograms of histamine per milliliter by extrapolation to a standard curve constructed with 10, 5 and 1 ng/ml of histamine (SIGMA).

In assay [1] the test system is bone marrow progenitor cells. Description: Colony assay: clonal proliferation and differentiation of bone marrow progenitor cells in semi-solid agar. The format is cell-based. As to the method:
(a) Colony assay: this assay measured the clonal proliferation and differentiation of bone marrow progenitor cells in semi-solid agar and was carried out as described (Lopez et. al., 1985, Blood 72, 1797-1804). Briefly, low density, macrophage-depleted bone marrow cells were cultured at a concentration of 0.5 to 1×10^5 /mL in Iscove's modified Dulbecco's medium (IMDM, GIBCI, Grant Island, N.Y.), containing 0.33% agar (Difco, Detroit), 25% FCS (Commonwealth Serum Laboratories, Parkville, Victoria, Australia), and 20 μmol/LK2-mercaptoethanol. Different dilutions of IL-3- containing COS cell supernatants were added to each plate. Plates were prepared in triplicate and scored after incubation at 37° C. in 5% CO2 in a humid atmosphere for 14 days. Clones containing 40 cells were scored as colonies.

In assay [2] the test system is chronic myeloid leukaemic (CML) cells. The assay can be described thus: Proliferation of chronic myeloid leukaemic (CML) cells, [3H] thymidine incorporation. The format is cell-based, human. As to the method: (b ) Proliferation of chronic myeloid leukaemic (CML) cells: Primarily CML cells from one patient were selected for their ability to incorporate [^3 H] thymidine in response to IL-3 as described (Lopez el. al., supra ). Briefly, CML cells were placed at 2×10^5 cells/mL fresh medium containing different concentrations of IL-3. Cells were incubated for 24 hours in a flat bottom 96-well NUNCLON plates (2×10^4 cells/well) before being pulsed with [^3 H] thymidine (0.5 μCi/well) for four more hours at 37° C. The cells were then harvested onto glass filters with a Titertek automated cell harvester and counted into a Beckman liquid scintillation counter. Data are expressed in cpm, and each point is the mean of six replicates.
(In general: Uptake of a labelled nucleoside into DNA is a usual measure of proliferation.)

For the next assay, the system named is monocytes. Description: Stimulation of human monocyte adherence (51Cr adhesion assay). The format is cell-based. As to the method: (a) Monocyte purification. Monocytes were purified from the peripheral blood of normal donors, obtained from the Adelaide Red Cross Transfusion Service, as previously described (Elliott et. al., 1990, J. Immunol., 145, 167-171). In brief, mononuclear cells were prepared by centrifugation of whole blood on lymphoprep cushions (Nyegaard, Oslo, Norway) and washed twice in HBSS, 0.02% EDTA, 0.1% heat inactivated FCS (Flow Laboratories, North Ryde, Australia) and monocytes were purified in a Beckman J-6M/E elutriator using the Sanderson chamber, a flow rate of 12 ml/min and a constant rotor speed of 2050 rpm. Cells remaining in the chamber after 30 min were collected, washed twice in HBSS, and used immediately. Using these methods, monocyte purity as assessed by morphology and nonspecific-esterase staining was always >90% and usually >95%. The major contaminating cell types were lymphocytes and granulocytes (principally basophils).
(b) Adhesion assay. Adhesion was measured by an isotopic method essentially as described (Elliott et. al., supra). In brief, purified monocytes (0.5 to 1×10^8) were resuspended in 1 ml RPMI 1640 with 0.1% FCS and antibiotics and incubated for 30 min at 37° C. with 500 μCi^51 Cr in the form of sodium chromate (Amersham International., Buckinghamshire, England). Cells were washed thrice in RPMI 1640 and resuspended in culture medium consisting of RPMI 1640, 10% FCS, antibiotics, and 0.2% sodium bicarbonate. For measurement of adhesion, 1 to 2.5×10^5 monocytes were aliquotted per well in 96-well microtitre plates (Nunc, Karnstrup, Denmark) together with stimuli or control medium to a total volume of […], and incubated for the indicated periods. […] At harvest, samples of supernatant were taken to assess spontaneous ^51 Cr release (usually <10% of cell-associated radioactivity), wells were washed three times with RPMI 1640 at 37° C., and residual adherent cells lysed in 10 mM Tris-hydrochloride, and 1% Nonident p40 detergent (Sigma). Lysates were transferred to tubes and counted in a Packard auto-gamma 5650. Percent adherence was calculated according to the formula: [formula]

Assay [3] deals with T1, IL-3R α chain and β chain (Homo sapiens, UniProt P26951+P32927).
T1 construct: amplify the complete coding region of the IL-3R alpha chain; also to amplify the coding region of the IL-3R α chain; expressed in transfected cells; host or cells: COS cells (pCDM8 vector, electroporation)
T1 sequence (P26951 19-378): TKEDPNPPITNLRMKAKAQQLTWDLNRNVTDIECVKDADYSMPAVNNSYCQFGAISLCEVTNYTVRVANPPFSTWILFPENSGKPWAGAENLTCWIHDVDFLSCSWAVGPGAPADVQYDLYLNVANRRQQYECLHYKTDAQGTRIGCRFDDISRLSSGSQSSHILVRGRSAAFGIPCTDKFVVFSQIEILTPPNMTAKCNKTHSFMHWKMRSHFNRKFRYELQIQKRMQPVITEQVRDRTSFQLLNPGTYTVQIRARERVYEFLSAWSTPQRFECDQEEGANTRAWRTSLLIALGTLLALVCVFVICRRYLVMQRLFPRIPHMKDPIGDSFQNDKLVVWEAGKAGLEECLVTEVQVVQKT
T1 sequence (P32927 17-897): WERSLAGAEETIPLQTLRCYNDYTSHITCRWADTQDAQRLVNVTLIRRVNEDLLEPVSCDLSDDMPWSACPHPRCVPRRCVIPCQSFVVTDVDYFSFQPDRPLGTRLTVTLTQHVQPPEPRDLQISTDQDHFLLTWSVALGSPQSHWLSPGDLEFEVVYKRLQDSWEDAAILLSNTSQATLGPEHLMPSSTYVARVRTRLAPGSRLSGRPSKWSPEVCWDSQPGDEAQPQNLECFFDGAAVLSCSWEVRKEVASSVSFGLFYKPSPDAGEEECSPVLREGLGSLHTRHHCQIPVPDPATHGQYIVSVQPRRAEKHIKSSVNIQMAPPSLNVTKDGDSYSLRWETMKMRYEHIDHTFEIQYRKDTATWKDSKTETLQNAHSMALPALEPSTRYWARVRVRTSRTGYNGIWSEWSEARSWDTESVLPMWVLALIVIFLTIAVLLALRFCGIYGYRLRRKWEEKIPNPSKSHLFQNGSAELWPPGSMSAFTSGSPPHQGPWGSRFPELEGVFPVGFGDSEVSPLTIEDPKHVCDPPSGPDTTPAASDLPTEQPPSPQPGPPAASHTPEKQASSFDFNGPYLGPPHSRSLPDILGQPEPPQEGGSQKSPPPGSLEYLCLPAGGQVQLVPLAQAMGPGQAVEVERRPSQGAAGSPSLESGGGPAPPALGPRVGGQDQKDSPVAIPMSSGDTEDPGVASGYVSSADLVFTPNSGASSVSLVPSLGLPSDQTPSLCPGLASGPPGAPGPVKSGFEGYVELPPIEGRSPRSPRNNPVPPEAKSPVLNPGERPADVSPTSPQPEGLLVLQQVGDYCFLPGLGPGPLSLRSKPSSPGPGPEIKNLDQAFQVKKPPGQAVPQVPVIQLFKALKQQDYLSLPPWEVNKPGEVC
Description: Competition for 125I-IL-3 binding to reconstituted IL-3 high affinity receptor (α and β chains) in COS cells. To be noted: FIG. 7. The text has this: PolyA+ RNA was isolated from the human cord blood cell line KMT2. Oligo dT primed double stranded cDNA was synthesised and used as template for PCR amplification. The PCR primers were designed to amplify the complete coding region of the IL-3R alpha chain and also to amplify the coding region of the […]. The PCR products were cloned into the vector pGEM-2 for sequence verification, and then into the eukaryotic expression vector, pCDM8. The […]-containing plasmid was transfected into COS cells by electroporation, either on its own or in conjunction with the […], and after two days the cells were used for binding studies.

[4] abbreviates: concentration of IL-3 mutant giving 50% of biological activity compared to that of wild type IL-3.

B1: M9: human IL-3 mutant, amino acid 116 (Lys) replaced by Val (protein, UniProt P08700 20-152, looked up, variant K116V)
Interleukin-3: APMTQTTPLKTSWVNCSNMIDEIITHLKQPPLPLLDFNNLNGEDQDILMENNLRRPNLEAFNRAVKSLQNASAIESILKNLLPCLPLATAAPTRHPIHIKDGDWNEFRRKLTFYLVTLENAQAQQTTLSLAIF
For the molecule B1, in the assay with basophils, the “histamine release from basophils” value was “increased histamine release”. For the same molecule, the “number of day 14 colonies” value in assay [1] was “increase in the number of day 14 colonies”. The “Relative biological activity, PROLIFERATION COLONIES” value in assay [1] (concentration of IL-3 mutant giving 50% of biological activity compared to that of wild type IL-3, mean ± SD) amounted to 420. Further, in assay [2] (FIG. 2, FIG. 8), the “stimulation of CML cell proliferation” value is on record as “more potent than the wild type IL-3”. Moreover, the “Relative biological activity, PROLIFERATION CML” value in assay [2] (setting [4]) stood at 328. Besides, in the assay on monocytes (FIG. 3), the “stimulation of monocyte adherence” value was “more potent than the wild type IL-3”. Also, the “Relative biological activity, MONOCYTE” value with monocytes (setting [4]) was 312.

B2: M47: human IL-3 mutant, glutamic acid at position 22 replaced by arginine (protein, UniProt P08700 20-152, looked up, variant E22R)
Interleukin-3: APMTQTTPLKTSWVNCSNMIDRIITHLKQPPLPLLDFNNLNGEDQDILMENNLRRPNLEAFNRAVKSLQNASAIESILKNLLPCLPLATAAPTRHPIHIKDGDWNEFRRKLTFYLKTLENAQAQQTTLSLAIF
On to B2, for which, in assay [3], the “binding to cotransfected α and β chains” value is listed as “less binding”.

The values above are taken from patent US5591427A, “Human Interleukin-3(Il-3) variants and their use to promote or antagonize IL-3-mediated processes” (Medvet Science Pty. Ltd., priority 1979, dated 1997).
